No end group written: not given here.
Key:
[1] = molecular target: T1, Interleukin-1α receptor on mouse Swiss/3T3 cells (mouse, UniProt P13504 20-576); assay: historical value of the assay laboratory, saturation analysis of [125I]IL-1 alpha on mouse Swiss/3T3 cells
T1 construct: whole, on cells; also called Interleukin-1α (assay target)
T1 sequence (looked up): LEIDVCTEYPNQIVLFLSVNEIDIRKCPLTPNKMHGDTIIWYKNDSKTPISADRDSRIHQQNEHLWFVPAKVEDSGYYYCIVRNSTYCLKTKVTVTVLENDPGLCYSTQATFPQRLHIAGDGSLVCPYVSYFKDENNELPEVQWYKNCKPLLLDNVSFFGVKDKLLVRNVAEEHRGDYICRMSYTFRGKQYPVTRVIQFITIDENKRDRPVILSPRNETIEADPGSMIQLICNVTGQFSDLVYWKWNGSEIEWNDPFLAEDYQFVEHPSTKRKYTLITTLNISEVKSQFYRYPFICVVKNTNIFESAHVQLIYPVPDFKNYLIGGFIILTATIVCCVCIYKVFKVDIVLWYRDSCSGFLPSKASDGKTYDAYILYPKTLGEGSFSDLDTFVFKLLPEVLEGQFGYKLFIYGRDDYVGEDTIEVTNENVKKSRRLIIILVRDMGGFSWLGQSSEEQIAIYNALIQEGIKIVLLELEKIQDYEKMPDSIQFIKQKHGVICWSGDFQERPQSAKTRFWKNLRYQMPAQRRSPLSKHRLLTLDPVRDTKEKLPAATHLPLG

[2] = molecular target: Galanin receptor of rat ileum (rat); assay: cell-based or functional assay
[3] = molecular target: Collagenase IV from human U937 cells (human, UniProt P14780 107-707); assay: cell-based or functional assay
Sequence of Collagenase IV from human U937 cells (P14780 107-707): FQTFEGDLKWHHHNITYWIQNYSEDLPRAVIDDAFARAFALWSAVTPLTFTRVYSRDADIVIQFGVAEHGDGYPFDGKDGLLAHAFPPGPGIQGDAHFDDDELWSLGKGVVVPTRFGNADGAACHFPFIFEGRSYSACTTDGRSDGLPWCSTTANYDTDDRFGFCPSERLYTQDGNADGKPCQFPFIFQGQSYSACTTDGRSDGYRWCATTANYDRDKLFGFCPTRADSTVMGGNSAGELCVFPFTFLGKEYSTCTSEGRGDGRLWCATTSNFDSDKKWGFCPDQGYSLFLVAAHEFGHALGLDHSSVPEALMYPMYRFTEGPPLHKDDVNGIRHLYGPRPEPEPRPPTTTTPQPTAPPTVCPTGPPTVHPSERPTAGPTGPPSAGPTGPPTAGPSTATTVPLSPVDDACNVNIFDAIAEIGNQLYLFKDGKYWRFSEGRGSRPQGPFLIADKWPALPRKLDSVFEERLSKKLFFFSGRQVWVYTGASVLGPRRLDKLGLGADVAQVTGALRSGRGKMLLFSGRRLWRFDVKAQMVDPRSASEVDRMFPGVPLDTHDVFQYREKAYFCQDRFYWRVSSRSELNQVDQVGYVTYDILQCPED

[4] = molecular target: T2, Cyclooxygenase-1 from ram seminal vesicle (ram (sheep), UniProt P05979 25-600); assay: cell-based or functional assay
T2 sequence (looked up): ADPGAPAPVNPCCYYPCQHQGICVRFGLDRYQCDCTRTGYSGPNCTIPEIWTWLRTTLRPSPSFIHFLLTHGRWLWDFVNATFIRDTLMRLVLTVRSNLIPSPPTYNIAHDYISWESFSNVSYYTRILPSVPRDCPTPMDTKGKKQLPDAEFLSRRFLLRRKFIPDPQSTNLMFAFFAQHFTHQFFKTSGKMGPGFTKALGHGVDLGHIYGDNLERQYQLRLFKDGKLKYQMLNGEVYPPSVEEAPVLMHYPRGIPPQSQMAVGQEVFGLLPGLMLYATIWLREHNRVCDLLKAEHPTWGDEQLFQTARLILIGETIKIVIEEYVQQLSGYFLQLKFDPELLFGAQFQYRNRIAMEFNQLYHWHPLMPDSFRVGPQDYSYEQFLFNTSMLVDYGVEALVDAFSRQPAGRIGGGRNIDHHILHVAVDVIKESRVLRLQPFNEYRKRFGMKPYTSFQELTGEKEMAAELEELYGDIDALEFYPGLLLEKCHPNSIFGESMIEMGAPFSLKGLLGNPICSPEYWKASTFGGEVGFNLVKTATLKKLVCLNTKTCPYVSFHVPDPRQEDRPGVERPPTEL

[5] = molecular target: T3, Cyclooxygenase-2 from sheep placenta (sheep, UniProt P79208 17-603); assay: cell-based or functional assay
T3 sequence (looked up): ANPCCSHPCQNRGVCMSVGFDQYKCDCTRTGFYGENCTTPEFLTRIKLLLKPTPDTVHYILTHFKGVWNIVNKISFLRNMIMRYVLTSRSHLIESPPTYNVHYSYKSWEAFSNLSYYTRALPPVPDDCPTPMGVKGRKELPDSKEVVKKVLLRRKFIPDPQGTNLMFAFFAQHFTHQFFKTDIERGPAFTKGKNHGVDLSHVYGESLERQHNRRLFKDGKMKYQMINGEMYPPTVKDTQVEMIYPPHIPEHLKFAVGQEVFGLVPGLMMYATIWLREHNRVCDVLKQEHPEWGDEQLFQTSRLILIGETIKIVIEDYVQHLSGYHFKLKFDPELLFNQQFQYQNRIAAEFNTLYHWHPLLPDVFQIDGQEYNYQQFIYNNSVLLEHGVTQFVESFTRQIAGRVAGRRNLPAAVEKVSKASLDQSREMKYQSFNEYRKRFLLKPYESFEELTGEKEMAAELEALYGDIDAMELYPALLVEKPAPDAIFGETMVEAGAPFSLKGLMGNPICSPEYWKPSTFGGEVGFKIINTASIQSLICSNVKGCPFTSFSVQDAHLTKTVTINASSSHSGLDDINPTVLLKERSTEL

[6] = molecular target: Phospholipase A2 from porcine pancreas (porcine, UniProt P00592 23-146); assay: cell-based or functional assay
Sequence of Phospholipase A2 from porcine pancreas (P00592 23-146): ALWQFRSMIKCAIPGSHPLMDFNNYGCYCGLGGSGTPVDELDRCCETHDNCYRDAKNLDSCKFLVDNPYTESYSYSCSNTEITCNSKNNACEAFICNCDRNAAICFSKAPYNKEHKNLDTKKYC

[7] = molecular target: Ca++/calmodulin dependent protein kinase II from rat brain (rat); assay: cell-based or functional assay
[8] = molecular target: Protein kinase C, non-selective, from rat brain (rat); assay: cell-based or functional assay
[9] = molecular target: Protein kinase C - γ, rabbit brain (recombinant) (rabbit, UniProt P10829 1-697, limits assumed); assay: cell-based or functional assay

B1: Interleukin-1α (ligand, UniProt P01583 113-271, looked up)
chain: SAPFSFLSNVKYNFMRIIKYEFILNDALNQSIIRANDQYLTAAALHNLDEAVKFDMGAYKSSKDDAKITVILRISKTQLYVTAQDEDQPVLLKEMPEIPKTITGSETNLLFFWETHGTKNYFTSVAHPNLFIATKQDYWVCLAGGPPSITDFQILENQA
modifications: 125I label on the radioligand
notes: also called IL-1 alpha; [125I]IL-1 alpha
Q: B1 was tested. Which Kd [1] did it give?
A: The Kd was 0.18 nM.

B2: pentapeptide Leu-Pro-Pro-Ser-Arg isolated from the epithelial layer of the sea cucumber Cucumaria frondosa (peptide of Example 1) (peptide)
peptide: LPPSR
modifications: also: at least one D-amino acid, position not given here
Q: With B2 as the binder, how does the “Agonism (contraction of rat ileum relative to 0.1 µM galanin), peptide 30 µM” value [2] read?
A: Its value is 0%.

Q: What about the “% Inhibition of enzyme activity, peptide 100.0 µM” value (“% Inhibition … peptide 100.0 µM” below) [3] of the same binder?
A: The value was 2%.

Q: What about the “% Inhibition of enzyme activity, peptide 300.0 µM” value (shortened to “% Inhibition … peptide 300.0 µM”) [4] of the same binder?
A: Its value is 2%.

Q: And the “% Inhibition … peptide 300.0 µM” value [5]?
A: Its value is 2%.

Q: What about the “% Inhibition … peptide 300.0 µM” value [6] of the same binder?
A: Its value is -11%.

Q: What about the “% Inhibition … peptide 100.0 µM” value [7] of the same binder?
A: The value was 12%.

Q: And the “% Inhibition … peptide 300.0 µM” value [8]?
A: Its value is -6%.

Q: And the “% Inhibition … peptide 100.0 µM” value [9]?
A: Its value is -6%.
